This is an account of results in patent US5861377A, “Antistasin type serine protease inhibitors” (Novartis AG, priority 1994, dated 1999).

In one data set the target is Subtilisin. Description: Inhibition of amidolytic activity of serine proteinases: subtilisin. The data set is classed as biochemical. As to conditions: Bact. subt. subtilisin; inhibitor 1.3 mM. How it is done:
(§1) To determine the specificity of hirustasin, its effect on the amidolytic activity of various serine proteinases (see Tab. 3) is determined. Therefore, proteinases are incubated with the inhibitor (1.3 mM) for 15 and for 30 min, and the residual enzyme activities are measured after addition of a suitable substrate. Equilibrium dissociation constants (Ki) for the complexes of hirustasin with individual proteases are determined essentially as described by Bieth (Bull. Europ. Physopat. Resp. (1980), 16, 183-195). Briefly, increasing concentrations of the inhibitor are incubated with a constant concentration of the enzyme; the time necessary to reach equilibration of the enzyme-inhibitor complex is determined for each protease in preliminary experiments. Substrate is then added and the residual enzyme activity measured. Apparent Ki -values are calculated by fitting the steady state velocities to the equation for tight binding inhibitors (Morrison, Biochem. Biophys. Acta (1969), 185, 269-286) using non-linear regression analysis.

A further data set concerns prothrombin time. In words: In vitro blood coagulation: prothrombin time (Quick). As to the method:
(§2) To determine whether hirustasin inhibits the blood coagulation in vitro, its effect on the prothrombin time and the partial thromboplastin time is measured using an Amelung KC10 coagulometer (Lemgo, Germany) and the reagent sets from Behringwerke AG (Marburg, Germany) according to the guidelines of the manufacturers.

In another data set the target is Plasma kallikrein (Homo sapiens, UniProt P03952). Description: Inhibition of amidolytic activity of serine proteinases: plasma kallikrein. The data set is classed as biochemical. As to conditions: inhibitor 1.3 mM. As to the method:
as §1

Another data set concerns the target Factor Xa (Homo sapiens, UniProt P00742). In words: Inhibition of amidolytic activity of serine proteinases: factor Xa. On the set-up: effect on proteinase activity: dose or concentration left out as unconfirmed. The data set is classed as biochemical. As to the method:
as §1, with “(1.3 mM)” left out

Data set [1] relates to partial thromboplastin time. In words: In vitro blood coagulation: partial thromboplastin time. How it is done: as §2
The target in a further data set is T1, Leukocyte elastase (Homo sapiens, UniProt P08246).
T1 sequence (P08246 30-267): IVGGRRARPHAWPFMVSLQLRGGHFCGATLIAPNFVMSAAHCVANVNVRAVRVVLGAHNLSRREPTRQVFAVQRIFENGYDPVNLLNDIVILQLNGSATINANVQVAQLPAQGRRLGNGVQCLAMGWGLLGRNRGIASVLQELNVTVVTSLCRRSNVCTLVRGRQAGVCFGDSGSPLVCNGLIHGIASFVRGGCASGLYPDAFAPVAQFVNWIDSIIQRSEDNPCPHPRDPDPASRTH
Description: Inhibition of amidolytic activity of serine proteinases: leukocyte elastase. As to conditions: inhibitor 1.3 mM. The data set is classed as biochemical. How it is done:
as §1

In the next data set the target is Urokinase (Homo sapiens, UniProt P00749). Description: Inhibition of amidolytic activity of serine proteinases: urokinase. It is filed as biochemical. The following applies: inhibitor 1.3 mM. As to the method: as §1
The next data set concerns the target Pancreatic elastase (Sus scrofa, UniProt P00772). Description: Inhibition of amidolytic activity of serine proteinases: pancreatic elastase. As to conditions: porcine pancreatic elastase; inhibitor 1.3 mM. It is filed as biochemical. How it is done:
as §1

The subject of data set [2] is blood coagulation cascade. Description: Blood coagulation cascade in vitro (general statement). How it is done:
as §2

In another data set the target is Chymase. Description: Inhibition of amidolytic activity of serine proteinases: chymase. The following applies: porcine chymase; inhibitor 1.3 mM. The data set is classed as biochemical. As to the method: as §1
Another data set has as its target T2, Thrombin (Homo sapiens, UniProt P00734).
T2 construct: the other proteinases tested including human α-thrombin and factor Xa
In words: Inhibition of amidolytic activity of serine proteinases: thrombin. The data set is classed as biochemical. Set-up: effect on proteinase activity: dose or concentration left out as unconfirmed. How it is done:
as §1, with “(1.3 mM)” left out

The target of a further data set is chymotrypsin (Bos taurus, UniProt P00766). Description: Inhibitory activity during purification: amidolytic activity of chymotrypsin. The data set is classed as biochemical. As to conditions: chymotrypsin inhibition; fraction of the isolation step. From the text: (§3) One inhibition unit (IU) is defined as the amount of inhibitor which reduces the substrate hydrolysis by 1 mmol per min.

In another data set the target is T3, trypsin (Bos taurus, UniProt P00760).
T3 sequence (P00760 24-246): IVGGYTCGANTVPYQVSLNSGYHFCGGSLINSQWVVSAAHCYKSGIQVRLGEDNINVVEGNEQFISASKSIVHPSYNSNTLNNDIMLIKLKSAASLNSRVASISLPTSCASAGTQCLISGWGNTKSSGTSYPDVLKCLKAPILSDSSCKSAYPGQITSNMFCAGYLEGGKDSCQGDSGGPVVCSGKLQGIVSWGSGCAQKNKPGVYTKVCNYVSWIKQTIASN
Description: Inhibitory activity during purification: amidolytic activity of trypsin. It is filed as biochemical. The following applies: trypsin inhibition; fraction of the isolation step. How it is done:
During the purification procedure inhibitory activity is assayed by measuring the inhibition of the amidolytic activities of trypsin and chymotrypsin. Samples are incubated with trypsin (225 nM) in 50 mM Tris/HCl (pH 7.8), 0.1% (mass/vol) Triton X-100, for 12 min at 25° C. The assay is started by addition of the substrate benzoyl-L-argininep-nitroanilide (0.4 mM, final concentration). The released nitroaniline is monitored photometrically at 405 nm for 3.5 min using an UVIKON 930® photometer (Kontron; Eching, Germany).
as §3

Some results are limits rather than exact numbers.

Sequence of Factor Xa (P00742 235-488 limits assumed): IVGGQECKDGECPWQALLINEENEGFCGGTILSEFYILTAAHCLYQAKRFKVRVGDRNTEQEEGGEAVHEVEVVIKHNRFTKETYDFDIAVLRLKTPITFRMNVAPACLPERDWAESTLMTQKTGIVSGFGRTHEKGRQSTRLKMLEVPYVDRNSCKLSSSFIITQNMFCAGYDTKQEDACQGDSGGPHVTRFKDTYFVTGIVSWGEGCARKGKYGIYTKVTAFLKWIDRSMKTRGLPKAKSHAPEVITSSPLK
Sequence of Factor Xa (P00742 41-179 partner limits assumed): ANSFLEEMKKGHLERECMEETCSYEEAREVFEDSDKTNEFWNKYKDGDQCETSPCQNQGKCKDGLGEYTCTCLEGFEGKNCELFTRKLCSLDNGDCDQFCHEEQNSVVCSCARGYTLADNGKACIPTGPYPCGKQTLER
Sequence of Plasma kallikrein (P03952 391-638 limits assumed): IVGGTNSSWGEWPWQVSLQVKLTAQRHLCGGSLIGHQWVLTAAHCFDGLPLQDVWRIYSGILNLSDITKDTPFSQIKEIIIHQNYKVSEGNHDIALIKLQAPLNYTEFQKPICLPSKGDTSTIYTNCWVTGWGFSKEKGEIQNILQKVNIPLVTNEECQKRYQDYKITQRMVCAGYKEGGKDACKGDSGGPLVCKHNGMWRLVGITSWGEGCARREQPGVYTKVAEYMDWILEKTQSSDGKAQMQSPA
Sequence of Plasma kallikrein (P03952 20-390 partner limits assumed): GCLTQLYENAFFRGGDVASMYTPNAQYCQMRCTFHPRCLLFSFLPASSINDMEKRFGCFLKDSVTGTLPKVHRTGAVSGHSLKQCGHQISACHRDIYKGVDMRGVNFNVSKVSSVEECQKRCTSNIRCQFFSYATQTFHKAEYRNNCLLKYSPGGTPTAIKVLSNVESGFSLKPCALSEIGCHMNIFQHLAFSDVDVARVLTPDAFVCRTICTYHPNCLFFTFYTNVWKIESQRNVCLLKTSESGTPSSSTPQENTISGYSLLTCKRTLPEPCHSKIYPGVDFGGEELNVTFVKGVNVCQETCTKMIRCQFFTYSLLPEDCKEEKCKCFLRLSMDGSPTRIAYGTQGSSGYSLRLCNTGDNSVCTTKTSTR
Sequence of Pancreatic elastase (P00772 27-266): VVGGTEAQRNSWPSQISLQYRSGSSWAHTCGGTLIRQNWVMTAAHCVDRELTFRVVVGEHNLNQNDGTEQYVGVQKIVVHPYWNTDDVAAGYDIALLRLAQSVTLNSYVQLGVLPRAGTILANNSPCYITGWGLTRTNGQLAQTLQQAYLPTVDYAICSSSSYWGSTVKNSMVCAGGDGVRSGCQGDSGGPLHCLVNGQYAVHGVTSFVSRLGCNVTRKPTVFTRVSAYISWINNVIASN

In the case of “Hirustasin: polypeptide of SEQ ID NO:1, antistasin-type serine proteinase inhibitor isolated from the medical leech Hirudo medicinalis (TQGNTCGGETCSAAQVCLKGKCVCNEVHCRIRCKYGLKKDENGCEYPCSCAKASQ)”, the Ki at Subtilisin is over 1.3 µM; with Plasma kallikrein, over 1.3 µM; with Factor Xa (human factor Xa, inhibitor 1.3 mM), over 1.3 µM; in the data set with Leukocyte elastase it was over 1.3 µM; with Urokinase, over 1.3 µM; with Pancreatic elastase, over 1.3 µM. The Ki was over 1.3 µM on Chymase and over 1.3 µM with Thrombin (human thrombin, inhibitor 1.3 mM). In addition, the “effect on prothrombin time” value with prothrombin time (concentration of 1.3 mM) is reported as “no significant effect”. The substance further had a Quick in the data set on prothrombin time (hirustasin 1.3 mM, buffer control 79%) of 80%. Besides, the “effect on proteinase activity” value is on record as “no effect” with Factor Xa (factor Xa, highest concentration used) and “no effect” in the data set with Thrombin (human α-thrombin, highest concentration used). In addition, the “effect on catalytic activity of isolated factor Xa” value with Factor Xa (isolated factor Xa) is “neither affects”. In data set [1] (concentration of 1.3 mM), the “effect on partial thromboplastin time” value is on record as “no significant effect”. For the same substance, the “Partial Thromboplastin Time” value in data set [1] (hirustasin 1.3 mM, buffer control 47.3 s) is on record as 47.9 s. The “effect on blood coagulation cascade in vitro” value in [2] was “neither affects”.
On to “Mono S ®: pooled Mono S fractions, the finally isolated hirustasin (TQGNTCGGETCSAAQVCLKGKCVCNEVHCRIRCKYGLKKDENGCEYPCSCAKASQ; UniProt P80302 1-55, looked up)”, for which the “Chymotrypsin SA [IU/mg] (specific activity)” value with chymotrypsin was 0.15 IU/mg. The “Trypsin SA [IU/mg] (specific activity)” value with trypsin is 2.7 IU/mg.

For orientation: Ki means a dissociation constant, usually derived from enzyme kinetics or from competition with a known ligand.
